Target: T1, human UBA6 (full-length, amino acid residues 1-1052) (human, UniProt A0AVT1 1-1052)
T1 construct: UBA6, human, Uniprot entry A0AVT1, full-length, residues 1-1052; The cloning methods name only the N-terminal 3×FLAG tag; the BLI methods say that His-tagged ligands were captured on anti-Penta-His sensors; also called UBA6^WT
T1 sequence (looked up): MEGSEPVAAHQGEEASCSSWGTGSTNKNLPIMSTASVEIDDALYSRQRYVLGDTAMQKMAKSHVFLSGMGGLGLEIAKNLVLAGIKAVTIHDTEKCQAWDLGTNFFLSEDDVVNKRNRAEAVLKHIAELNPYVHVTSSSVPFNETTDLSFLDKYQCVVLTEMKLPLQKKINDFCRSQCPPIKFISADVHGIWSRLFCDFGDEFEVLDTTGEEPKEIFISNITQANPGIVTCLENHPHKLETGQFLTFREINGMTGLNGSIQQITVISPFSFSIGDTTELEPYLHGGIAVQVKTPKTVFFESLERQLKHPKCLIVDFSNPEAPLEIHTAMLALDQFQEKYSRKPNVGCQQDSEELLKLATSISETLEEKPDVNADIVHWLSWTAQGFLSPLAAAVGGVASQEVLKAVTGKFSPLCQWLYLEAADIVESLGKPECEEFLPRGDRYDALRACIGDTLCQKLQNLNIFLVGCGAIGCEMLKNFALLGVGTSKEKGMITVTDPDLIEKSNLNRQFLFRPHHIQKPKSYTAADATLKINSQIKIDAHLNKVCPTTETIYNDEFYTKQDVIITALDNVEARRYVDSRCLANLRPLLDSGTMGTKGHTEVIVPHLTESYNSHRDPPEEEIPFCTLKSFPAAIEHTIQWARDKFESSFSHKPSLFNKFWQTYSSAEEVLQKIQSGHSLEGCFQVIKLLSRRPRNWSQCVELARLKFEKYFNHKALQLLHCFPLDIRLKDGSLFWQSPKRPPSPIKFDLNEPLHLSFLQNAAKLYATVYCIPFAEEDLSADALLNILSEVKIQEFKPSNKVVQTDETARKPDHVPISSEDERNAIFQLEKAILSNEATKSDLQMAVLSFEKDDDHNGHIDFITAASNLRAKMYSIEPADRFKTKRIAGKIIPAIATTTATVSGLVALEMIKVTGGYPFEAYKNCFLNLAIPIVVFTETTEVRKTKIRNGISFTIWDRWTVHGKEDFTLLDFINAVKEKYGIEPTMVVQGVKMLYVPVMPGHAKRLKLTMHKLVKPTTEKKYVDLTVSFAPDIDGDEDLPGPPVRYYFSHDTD
Experiment: BLI; His-tagged E1 ligands on Anti-Penta-His (His1K) biosensors; analyte BIRC6^UBC or BIRC6^(UBCΔinsertion loop) at 40-3240 nM; 50 mM HEPES, pH 7.4, 150 mM NaCl, 0.05% Tween-20, 10 mM imidazole; 25 °C; steady-state 1:1 fit
Settings: both partners purified

- Kd: 4.82 µM
B1: UBC domain of BIRC6 (residues 4520-4857) (domain or fragment)
chain: not shown
notes: BIRC6 UBC domain, human, Uniprot entry Q9NR09, residues 4520-4857; also called BIRC6^UBC; WT BIRC6^UBC; source: E. coli BL21 (DE3), purified (Ni-NTA, HRV 3C cleavage, SEC); not shown: His6, N-terminal, cleaved

Reference: article PMC13623948, “Steric Gating Contributes to the Preferential Ubiquitin Charging of BIRC6 by UBA6 versus UBA1” (Nature Communications, 2026)
